Experimental data taken from the DeepSol protein solubility set.

Test: soluble on expression in E. coli; label from the status in PepcDB or PDB records

Sequence: MGSDKIHHHHHHMVSEECSSFFYLHNSDFNMFGKKKNEDYSVKTVKVGVDKLTTIALGTMVKGTITVEGDLRLDGIIEGNVSCRGKVVIGPQGRIKGNVTCTGAVLHGMLQGDIQVAEDLIMKSGCTMNGDVYTCKLEIESKARFNGTCNTTEKDTLVTSQVVKPETVDTEK
- soluble on expression in E. coli: not soluble

Sequence: MTVSGPGTPEPRPATPGASSVEQLRKEGNELFKCGDYGGALAAYTQALGLDATPQDQAVLHRNRAACHLKLEDYDKAETEASKAIEKDGGDVKALYRRSQALEKLGRLDQAVLDLQRCVSLEPKNKVFQEALRNI
- soluble on expression in E. coli: soluble

Sequence: SKQPDKQRKSQRRAPLHERHKQVRATLSADLREEYGQRNVRVNAGDTVEVLRGDFAGEEGEVINVDLDKAVIHVEDVTLEKTDGEEVPRPLDTSNVRVTDLDLEDEKREARLESEDDSA
- soluble on expression in E. coli: soluble

Sequence: MNWYEKLSEYFPIEEMKSKAHMEALLKERSDIYHKDEGKHHILMFAEFDSFIFVDYLYVSKDARGQGLGGKLIAKLKKKNKPILLEVEPVDEDDTDTEKRLRFYQREHFKHAQSIGYRRRSLATNEVNKIEILYWSPKTESEEEILEAMKQTYENIHTYKDEKWYGESYEKTDEVLEIIDEEKQKNIFDQLS
- soluble on expression in E. coli: not soluble

Sequence: SVKRLFKVRSDLDFAEQLWCKMSSSVISYQDLVKCFTLIIQSLQRGDIQPWLHSGSNSLLSKLIHQSYHGTMDTVSLSGTIPVQMLLEIGLDKLKKDYISFFIGQELASLNHLEYFIAPSVDIQEQVYRVQKLHHILEILVSCMPFIKSQHELLFSLTQICIKYYKQNPLDEQHIFQLPVRPTAVKNLYQSEKPQKWRVEIYSGQKKIKTVWQLSDSSPIDHLNFHKPDFSELTLNGSLEERIFFTNMVTCSQVHFK
- soluble on expression in E. coli: soluble

Sequence: MSLDLQLYLSNLANQIDRETGIGDVPLVILLDDLSEAGSISELVNGALTCKYHKPYIIGTTNQPVKMTPNHGLHLSFRRMLTFSNNVEPANGFLVRYLRRKLVESDSDINANKEELLRVLDWVPKLWYHLHTFLEKHSTSDFLIGGPCFFLSCPIGIEDFRTWFIDLWNNSIIPYLQEGAKDGIKVHGQKAAWEDPVEWVRDTLPWPSAQQDDSTPSSLDSDPLMAMLLKLQEAANYIESPDRETILDPNLQATLEGHHHHHH
- soluble on expression in E. coli: soluble

Sequence: GALLHQRDQDMLVSILDLEKVSVEDIMIPRSDLVGIDVNDDWKKIQKQLTQANHTRVLLYRDSIDDVVGYIHARDALKLLSKNQFNKATLLRAVRELYFVPEGTPLNIQLLKFQHAKERIGLVVDEYGDIQGLVTLEDILEEIVGDFT
- soluble on expression in E. coli: not soluble

Sequence: MTEAEDFAQLLQKLQNASPALPEGTSSTPTPSSSTGLLPNGKKTKGRVKIKMEYINNKLRRYTTFSKRKTGIMKKAFELSTLTGTQVMLLVASETGHVYTYATPKLQPMISSDTGKAMIQSCLNAPGGDGSDVQPSRTEFTFDSGNGGNGMRKRKMLSDVMSAESSNNSPSMPNFTPFLAPSMAPLFSTFGEDDYNNDESGDDSDSEEASSDIKEEYQGSPTMVKQETTEIDSVTASLQQRIKEAMRQAASNKQAIKKAKITPPSSNMNNAAFLNPFLLQGGANASNLLATAARKGDDAGSLTSNPFLSMGLNLQQLIESAAIASNE
- soluble on expression in E. coli: not soluble

Sequence: MFNDLESKLQSLLERNITSVLELENWLFDELRVNAEIEEKITSSLIATYRDTDNRNMRDLHMYNQNTIQPLLKRYNAKFDQKFIECPFSNLLDERKYEFMKKARFVKSKMFNEKNIALSIKGQECITKYREIMSNITINWEGEQKTYAHVKAKLDNPNRAIRKKAWYALCEARSVVKPEVDRIMNELIQLRNEIALNAGFNNYSEYAFKQKNRDYSIDDCYKLHESIEKYVVPIWKQLGSISKKNLDVKTYRPWDLSPCNLPKAPFQNAINLLDGVEEMFRTTDLYFYEKFIHIRKAGCIDVEERENKAAGAICFTLPHSKEVFVYSNFSPSFYAINALIHEVGHAFHFYKQFKNDSSMQERYLREEVAELYSLSLELLVMDKLNVFYKQEDEYKEVQRVQIYRALSLLMSSIAGDVFQHWIYENPNHTPEERDKKYAEICKRYQYSTVDIAGLEDEIGASWIESFHYVQFPFYKIEYAIAQIGAMQLFQIYWEDPEKAIDFFKEGASADWNLSIQEIYEKTGVTFDFSEERIESTASVILDLINELK
- soluble on expression in E. coli: not soluble

Sequence: MGSDKIHHHHHHMINHHPNSDVLAQFVAGTLPASVSVLVASHVELCSECTRAVQALTEQAAIDAFGESSQEALRDASQPAGLADVSGLDDFDGLDDFDTSDQFGDSDEFADCINAITALERDDTQQLPQTVTEIAVGGERIPLPTALRSIPLKEWQGMGKLSRSRLALDDGDLRMSLLHIDKGGSVPCHTHKGFEITLLLQGSFTDEMGEYRKGDFIWLDGQHTHQPVTEKGCVCLTVSSDAIRFTQGVSQLLNPIGRFIY
- soluble on expression in E. coli: not soluble

Sequence: GKKLEPIEELTIDVPEEFMGVVMEKLGPRKAELVNMTSAVNGYTRLEFKIPSRGLIGFRNEFMTDTKGNGIMNSTLIDYEPFRGDIPERSRGSIVVFETGVSVVYGLYSAQERGRLFVGAGVDVYEGMV
- soluble on expression in E. coli: not soluble

Sequence: MGSDKIHHHHHHMPRTIRIYRPTELPADEALPVIYMHDGQNVFSGETASFGKGWEVHHALHTVQLHAMIVAIDSPDDGMDRYDEYAPWTDEALLMRTAYPSHRKTIGGNGKQYMHWIVHELKPYIDAQYATIPTDTTMIGSSMGGVISLYGLFAYPEVFTRVAALSTAGWANFSSLLEFIERSPGLSEDHRCYMDVGTKEVSGPMTENDYLHTNEVLAKAVQKKVQQAAYEIIPGAVHHETEWAKRMPDILRFLFSS
- soluble on expression in E. coli: not soluble

Sequence: MSLDFATEYVYPAFSELTGTDKIVAFGDHSHKCPIYVPQTPPCTAECPAGEDIRAINRFLNGTDPSDDPLKSAWETATDTNPFPAVMGRICPHPCQSKCNRGVHDESVAINAVEQVLGNYGIEHNLKLKGPGADTGKRVAIIGGGPAGLSAAYQLRRKGHAVTIYDANEKLGGMVLYGIMGYRVDRKVLEAEIGRIIELGVETKMGVTIGKDITLEQLEAEYDAVFIAVGAQKGRALPVPGFEGTPGATNAIDFLKSYEVLGDDIPVGKHVVVIGDGNVSMDVARLALRLGSQATIISGVPREEMACFENEFDDAKNEGTTMHFLTGTVEVLGGASGVTGLRCTKMVKKEKGEEGWNSPIPFLRYKSNGESFEIEADMVVAAIGQATDLSGLGSAASGPWLKVDRNFRIPGREKLFGGGDALKVDLITTAVGHGRKAAYAIDAFLKGEPMPEEPYREITKPHKQDLLYFLHTPQAKRTSIKPEVVVGNHDELLEALTPEQAVTESKRCMSCGFCFDCKQCVSFCPQEAITRFRDNPAGEKVYTNYAKCVGCHLCSLVCPCGYIQMGMGDGEGHHHHHH
- soluble on expression in E. coli: not soluble

Sequence: MGSSHHHHHHSSGRENLYFQGHMPSNLNIVKVTKPQEENKNFLHKNTNEPNEMEQSQTQEAVTENFTENSNLSANEHAARRGRLNLKTVDHIETYPIVQETEEIAKKIALTRIILAQTKPRIDKVVVSRPVQAVAPVVNFFDKMANSTLSTVERVVPSLKTKTYKRLGEEIALPYTLSKKYGKQLRDTTARNGDNYVYQPVHGRLMKFRKYYNEKFIDTKGKPLIRGQLDPVLLPVNNTFEKVTVKYLPKGKKVPNDSFSCEFNRGLALEYNFMTRAVSAVSHQVVGIAKLPIAYGYHTNSVYNKNLDKQADLKMKNVLRGTWDTITDLEREIWASVTDRSLFRFFGNKSEGGDLPHLVQ
- soluble on expression in E. coli: soluble

Sequence: MAETDPKTVQDLTSVVQTLLQQMQDKFQTMSDQIIGRIDDMSSRIDDLEKNIADLMTQAGVEELESENKIPATQKS
- soluble on expression in E. coli: not soluble

Sequence: MGDRFDSARHRVEAAAIKAFAGEFDPQPFHLDEEAARHSLFGGLAASGWHTAAITMRLLVTSGLPLAQGIIGAGTELSWPNPTRPGDELHVETTVLAITPSKSRPDRAIVTCQSDTLNQRGEVVQRSTAKVVVFRRPLEHHHHHH
- soluble on expression in E. coli: not soluble

Sequence: MVIRPVERSDVSALMQLASKTGGGLTSLPANEATLSARIERAIKTWQGELPKSEQGYVFVLEDSETGTVAGICAIEVAVGLNDPWYNYRVGTLVHASKELNVYNALPTLFLSNDHTGSSELCTLFLDPDWRKEGNGYLLSKSRFMFMAAFRDKFNDKVVAEMRGVIDEHGYSPFWQSLGKRFFSMDFSRADFLCGTGQKAFIAELMPKHPIYTHFLSQEAQDVIGQVHPQTAPARAVLEKEGFRYRNYIDIFDGGPTLECDIDRVRAIRKSRLVEVAEGQPAQGDFPACLVANENYHHFRVVLARTDPATERLILTAAQLDALKCHAGDRVRLVRLCAEEKTA
- soluble on expression in E. coli: not soluble

Sequence: MKVYSKDDIVEQAKELAKMISETEEVDFFKKAEAQIHKNENVKRAIDEIKALQKQAVNLQHYGKWEALKKVEAEIDALQDKLDSIPVVQQFKSSQTYVNDLLQLVASTISNNVTDEILISTGGDVLKGETGAAVESKKGNCGC
- soluble on expression in E. coli: not soluble

Sequence: MGHHHHHHSHMSHGHSHGGGGCRCAAEREEPPEQRGLAYGLYLRIDLERLQCLNESREGSGRGVFKPWEERTDRSKFVESDADEELLFNIPFTGNVKLKGIIIMGEDDDSHPSEMRLYKNIPQMSFDDTEREPDQTFSLNRDLTGELEYATKISRFSNVYHLSIHISKNFGADTTKVFYIGLRGEWTELRRHEVTICNYEASANPADHRVHQVTPQTHFIS
- soluble on expression in E. coli: not soluble

Sequence: MSRLTELLRQVRKADAQLGTDLEAEVAALTKRRTFGLVFEQHQPEAVELPGRVVRRGDKVRVLPPRGGTKAGDQRLWRTTRIECVDGQRVAHLAELDVEEPETRAVLADDVVVVAEFRDRIYPGLVETGRVERGGDKPFHTVVNAENYHALEMLTYTHRHSIDAIYIDPPYNTGARDWKYDNDYVASDDDYRHSKWLAFMERRLKICRELMRSDATLVATIDEHEVNRLGVLLDQLFPESTRQLVTIVNNPKGVTQGYLSRVEEYAFFVFGPDARIGSVDDDLLTHRDMADAEGELQRPRWKGLLRSGDDSLRADRKDMFYPVWFDESTGRLSHAGEALPLDETPDFSPQDGLTPIWPIRRDMKEGPTRAAPRRSILDYALHPHL
- soluble on expression in E. coli: not soluble

Sequence: MVKRAKLINDVVELIPIFHLLSTETYRKVYNALLEGWYTARELEEMIGEGYRDALRILKNAGMLEAKWRMPSDPGGKPEKEYHVSYTHVSANFYISLKDLNKVLEVVFMSDDEVEEYVREIIKEIEAGRTSVTYITKDLNLDPLFLRAIAKRSLKLNLKGQLIELAKDEEI
- soluble on expression in E. coli: not soluble

Sequence: MGSDKIHHHHHHMTNLGTAKNFWDATLYQDKHSFVWQYGEDLLQLLNPQPGEFILDLGCGTGQLTEKIAQSGAEVLGTDNAATMIEKARQNYPHLHFDVADARNFRVDKPLDAVFSNAMLHWVKEPEAAIASIHQALKSGGRFVAEFGGKGNIKYILEALYNALETLGIHNPQALNPWYFPSIGEYVNILEKQGFDVTYAALFNRPTTLAEGEFGMANWIQMFASAFLVGLTPDQQVQLIRKVEATLQDKLYHQESWTADYRRIRIVSIKAQ
- soluble on expression in E. coli: not soluble

Sequence: MNVKSRQQENAEATREALLESALSAFIEHGYGGVSIDAIAREARVTKGAFYHHFGSKQELLAECYERQVRTIAEDLDRVPAHVDKWAEAAALAEAFIDSVMARGKRQLSLQEVITVVGWERWKRIDSRHTLRYVGRLVDELAASGELKDYRRETLVGQLYGFLTQAAMSLRDARNKRQAANEVKAIIRDFLYSLRRG
- soluble on expression in E. coli: not soluble

Sequence: MGSDKIHHHHHHMTLPPPRPPALCRGVVGLPLETQIDLTASNLAAVADLAAQYGLLIYLEALSWTPLNTIDRQLRTIEIANRDNIRLVIDFWHCYTSGDTPKHIARLHKDIIYGVHICDSLAYAGGVPDENMLRDVPTGNGVLNLKEWVDAVKSTGYDGWWSCELFCRRQHQENSYDVARSLNALMRDLVGA
- soluble on expression in E. coli: not soluble
